In assay [1] the target is soluble recombinant HLA A*0201 (α chain tagged with a biotinylation sequence, with β2m). The assay is described as follows: SPR; real time pMHC stability assay, BIAcore 3000, CM5 chip; ~500 RU of biotinylated refolded pMHCI immobilised on streptavidin; flow 10 μl/min for 15,000 s; Langmuir dissociation analysis converted to half-life. (In general: Surface plasmon resonance follows binding to a sensor surface in real time, without labels.)

Assay [2] deals with HLA A*0201 on the surface of TAP deficient T2 cells (human (endogenous in T2 cells)). The assay is described as follows: flow cytometry on cells; T2-binding assay: TAP deficient T2 cells with peptide at 100, 50, 10 and 1 μM in AIM-V, 10 min 37 °C, room temperature overnight, 2 h 37 °C; surface HLA A*0201 stained with anti-human HLA A*0201:RPE; MFI fitted (log(agonist) vs. response) to logEC50. On the technique in general: Flow cytometry measures light scatter and fluorescence of single cells or particles in a stream.

The target of assay [3] is soluble recombinant HLA A*0201 (α chain tagged with a biotinylation sequence, with β2m). The assay is described as follows: SPR; real time pMHC stability assay, BIAcore 3000, CM5 chip; ~500 RU of biotinylated refolded pMHCI immobilised on streptavidin; flow 10 μl/min for 15,000 s; Langmuir dissociation analysis converted to half-life. This is another data set of the same source.

The target of assay [4] is HLA A*0201 on the surface of TAP deficient T2 cells (human (endogenous in T2 cells)). The assay is described as follows: flow cytometry on cells; T2-binding assay: TAP deficient T2 cells with peptide at 100, 50, 10 and 1 μM in AIM-V, 10 min 37 °C, room temperature overnight, 2 h 37 °C; surface HLA A*0201 stained with anti-human HLA A*0201:RPE; MFI fitted (log(agonist) vs. response) to logEC50. The source holds these as a separate data set.

Where two headings read alike, the source gives them in different places.

B1: gp100 280-288 peptide YLEPGPVA (peptide)
chain: YLEPGPVTA
modifications: not checked
As a reminder, the half-life is the time in which the quantity being followed falls by half. B1: the half-life in assay [1] stood at 5.8 h. The molecule further showed a LogEC50 in assay [2] of -3.59 M.

B2: NY-ESO-1 157-165 heteroclitic peptide … (peptide)
peptide: SLLMWITQL
As usually defined, the koff is the first-order rate constant of dissociation. Regarding B2, in assay [3], the half-life is 10.1 h and the koff was 1.9e-05 s⁻¹. Besides, the LogEC50 in assay [4] is -4.37 M.

Source of the values: paper PMC3032881.
